# From IntAct's records for PubMed 17215868
# B1: Vacuolar protein-sorting-associated protein 36 (Saccharomyces cerevisiae), Q06696 (parent)
# chain: MEYWHYVETTSSGQPLLREGEKDIFIDQSVGLYHGKSKILQRQRGRIFLTSQRIIYIDDAKPTQNSLGLELDDLAYVNYSSGFLTRSPRLILFFKDPSSKDELGKSAETASADVVSTWVCPICMVSNETQGEFTKDTLPTPICINCGVPADYELTKSSINCSNAIDPNANPQNQFGVNSENICPACTFANHPQIGNCEICGHRLPNASKVRSKLNRLNFHDSRVHIELEKNSLARNKSSHSALSSSSSTGSSTEFVQLSFRKSDGVLFSQATERALENILTEKNKHIFNQNVVSVNGVDMRKGASSHEYNNEVPFIETKLSRIGISSLEKSRENQLLNNDILFNNALTDLNKLMSLATSIERLYKNSNITMKTKTLNLQDESTVNEPKTRRPLLILDREKFLNKELFLDEIAREIYEFTLSEFKDLNSDTNYMIITLVDLYAMYNKSMRIGTGLISPMEMREACERFEHLGLNELKLVKVNKRILCVTSEKFDVVKEKLVDLIGDNPGSDLLRLTQILSSNNSKSNWTLGILMEVLQNCVDEGDLLIDKQLSGIYYYKNSYWPSHI
# partner: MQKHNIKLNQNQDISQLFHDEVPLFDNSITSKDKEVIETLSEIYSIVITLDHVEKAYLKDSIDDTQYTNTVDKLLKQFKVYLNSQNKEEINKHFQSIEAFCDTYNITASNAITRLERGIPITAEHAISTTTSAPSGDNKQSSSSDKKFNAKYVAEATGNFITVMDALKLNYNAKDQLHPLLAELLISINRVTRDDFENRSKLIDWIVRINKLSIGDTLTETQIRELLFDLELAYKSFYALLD
# Variants of: B1
# Conditions: with vps28_yeast VPS28, Q02767
row,effect of a mutation on the interaction,Variant
1,disrupting interaction,I122D

# Variants of: B1
# Conditions: with vps28_yeast VPS28, Q02767
# Remark: another data set of the same source
row,effect of a mutation on the interaction,Variant
1,disrupting interaction,D151R;L154R

# Variants of: B1
# Conditions: with vps28_yeast VPS28, Q02767
# Remark: another data set of the same source
row,effect of a mutation on the interaction,Variant
1,disrupting interaction,V148D;D151R

# Variants of: B1
# Conditions: with vps28_yeast VPS28, Q02767
# Remark: another data set of the same source
row,effect of a mutation on the interaction,Variant
1,disrupting interaction,I122D;V148D
